This note sets out measurements from patent US20210002619.

Data set [1] concerns T1, C-terminal domain of the retinoblastoma protein (Rb (771-928)).
T1 sequence: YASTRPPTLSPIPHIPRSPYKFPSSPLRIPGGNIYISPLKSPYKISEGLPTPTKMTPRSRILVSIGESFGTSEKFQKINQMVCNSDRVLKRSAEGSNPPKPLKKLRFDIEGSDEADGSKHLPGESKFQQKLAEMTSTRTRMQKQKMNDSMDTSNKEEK

Data set [2] has as its system T2, Transactivation domain of FoxM1 (FoxM1 (526-748)).
T2 sequence: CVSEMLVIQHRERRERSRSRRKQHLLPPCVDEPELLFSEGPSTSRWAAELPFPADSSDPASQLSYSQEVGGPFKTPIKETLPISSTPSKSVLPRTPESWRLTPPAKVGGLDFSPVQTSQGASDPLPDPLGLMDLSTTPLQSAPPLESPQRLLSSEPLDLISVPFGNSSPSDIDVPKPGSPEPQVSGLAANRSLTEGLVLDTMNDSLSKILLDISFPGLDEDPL

Sequence of Full-length histone H1 (chain, as listed by the source): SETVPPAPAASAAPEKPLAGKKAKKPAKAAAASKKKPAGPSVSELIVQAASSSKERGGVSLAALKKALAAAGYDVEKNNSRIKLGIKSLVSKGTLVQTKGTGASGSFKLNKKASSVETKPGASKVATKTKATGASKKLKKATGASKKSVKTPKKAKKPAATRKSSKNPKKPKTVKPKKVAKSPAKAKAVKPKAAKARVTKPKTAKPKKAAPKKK

For “Wild-type p27-Cdk4-CycD1 trimeric complex (vi) with phosphorylated p27 (Cdk4 variant having T172E substitution)”, the “phosphorylation activity (32P-ATP labeling of substrate)” value (in data set [1]; in data set [2]; with Full-length histone H1) was “had phosphorylation activity toward all substrates” throughout.
Take “Wild-type p27-Cdk4-CycD1 trimeric complex (v) with phosphorylated p27 (wild-type Cdk4)”: the “phosphorylation activity (32P-ATP labeling of substrate)” value (in data set [1]; in data set [2]; in the data set on Full-length histone H1) was “had phosphorylation activity toward all substrates” in each case.
